Test results: US20100227414A1, “Affinity capture mass spectroscopy with a porous silicon biosensor” (Trex Enterprises Corp., priority 2009, published 2010)

Target: extra-cellular receptor for interleukin 34 (Homo sapiens, UniProt P07333)
Assay: NPOI flow cell label-free binding with fraction collection (AC-MS)
Text: The first embodiment is sketched in FIG. 3. The NPOI flow cell instrument is used together with a fraction collector. This fraction collector could simply be a collection vessel of some sort. Initially capture molecule is placed on the porous silicon chip using a typical flow cell procedure. A carboxyl chip shown at 214 in FIG. 2, used for amino coupling, is used. This contains both a sample and reference channel 220 and 221. Using the AutoPrep 200 and two 6-port, 2-position injection valves, one for the sample 210 and one for the reference 211, solutions are introduced to the flow cell. Initially the chip is activated using water as running buffer, pumped by two separate pumps one for sample 212 and one for reference 213, at 8 μL/min. A solution of 200 mM, 1-ethyl-3-(3-dimethylaminopropyl) carbodiimide (EDC) and 50 mM sufo N-hydroxysuccinimide (sNHS) is used to activate the chip for 8 minutes. Then a solution of 20 μg/mL capture molecule is introduced in pH 5.0, 40 mM acetate buffer (1-1,000 μg/mL concentration may also be used). […] The chip is now ready for binding. […]
A specific example of such an approach is shown in FIG. 8 which is a print of a monitor display showing Mascot Search Results. […] The resulting data was analyzed using Mascot and a customized human protein database (810) show the successful identification of IL34.

extra-cellular receptor for interleukin 34, sequence (P07333 20-517 limits assumed): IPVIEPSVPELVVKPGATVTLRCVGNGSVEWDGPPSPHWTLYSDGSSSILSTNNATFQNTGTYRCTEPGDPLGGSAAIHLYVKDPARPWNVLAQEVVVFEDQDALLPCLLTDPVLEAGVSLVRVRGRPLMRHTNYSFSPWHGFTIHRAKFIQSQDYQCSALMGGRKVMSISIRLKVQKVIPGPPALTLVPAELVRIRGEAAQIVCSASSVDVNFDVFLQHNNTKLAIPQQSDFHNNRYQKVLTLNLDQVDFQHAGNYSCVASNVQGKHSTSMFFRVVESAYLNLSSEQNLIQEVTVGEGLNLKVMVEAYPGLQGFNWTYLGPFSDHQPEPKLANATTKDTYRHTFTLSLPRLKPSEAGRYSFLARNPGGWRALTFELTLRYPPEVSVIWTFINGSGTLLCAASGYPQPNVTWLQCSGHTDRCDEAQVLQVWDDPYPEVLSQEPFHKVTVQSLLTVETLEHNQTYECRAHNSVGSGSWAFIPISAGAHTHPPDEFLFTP

B1: Interleukin 34 (protein, UniProt Q6ZMJ4 21-242, looked up)
Interleukin-34: NEPLEMWPLTQNEECTVTGFLRDKLQYRSRLQYMKHYFPINYKISVPYEGVFRIANVTRLQRAQVSERELRYLWVLVSLSATESVQDVLLEGHPSWKYLQEVETLLLNVQQGLTDVEVSPKVESVLSLLNAPGPNLKLVRPKALLDNCFRVMELLYCSCCKQSSVLNWQDCEVPSPQSCSPEPSLQYAATQLYPPPPWSPSSPPHSTGSVRPVRAQGEGLLP
notes: Interleukin 34 (the analyte) doped into spent cell culture media
change in OPD (label-free binding signal) (IL34 100 ng/mL in spent cell culture media, 50 μL, between 0 and 240 seconds, receptor immobilized at 100 μg/mL): 0.7 nm | amount captured on chip corresponding to OPD change (almost complete capture of the material introduced): 5 ng
